Measurements: US5972636A (priority 1997, dated 1999)
Entries after “also recorded” stand apart in the source; their conditions may differ.

Columns and labels:
[1] = tested on: fraction II (ATP-dependent degradative system); assay: Hydrolysis of Ub-125I-lysozyme by muscle fraction II; format: biochemical, rabbit
Procedure: All enzymatic assays were linear, except where noted (see below). When present, ATP was 2 mM in assays. Unless otherwise stated, in all assays, 50 μl aliquots of the fraction from the column or of the purified protease (10 μg)were incubated in 200 μl containing 50 mM TRIS-HCl (pH 7.8), 10 mM MgCl2, 1 mM DTT, and 5 μg of the radioactive proteins, 0.5 μg of Ub-conjugates, or 0.5 mM of the fluorogenic peptide. For assays of proteolysis, the reaction mixtures contained approximately 15,000 cpm of Ub-lysozyme or labeled proteins. Degradation of ^125 I-lysozyme, Ub-^125 I-lysozyme, ^14 C-casein, ^14 C-hemoglobin and OH/O2^- treated ^14 C-hemoglobin were assayed by measuring the production of acid-soluble radioactivity after 60 min of incubation at 37° C. Ub-^125 I-lysozyme was prepared using liver fraction II, according to the method of Hough and Rechsteiner. Hough et al., J. Biol. Chem. 261:2400-2408 (1986), Hough, R. and Rechsteiner, M. J. Biol. Chem. 261:2391-2399 (1986). ^125 I-lysozyme and Ub were prepared as described previously. Waxman et al., J. Biol. Chem. 262:2451-2457 (1987), Fagan et al., BioChem. J. 243:335-343 (1987). The concentration of conjugates was calculated based on the specific radioactivity of the ^125 I-lysxozyme used for conjugate synthesis. One unit of sLLVT-MCA represents 10 nmol of MCA produced in 30 min. […]

[2] = tested on: proteasome-multipain complex formation; format: biochemical, rabbit
[3] = tested on: new protease (multipain) from skeletal muscle
[4] = tested on: 1500 kDa complex (proteasome-multipain)
denervated soleus = format: cell-based, rat
[5] = target: T1, proteasome from skeletal muscle (Oryctolagus cuniculus, UniProt G1T4Q9); format: biochemical, rabbit
T1 construct: from tissue; host or cells: rabbit skeletal (psoas) muscle, proteasome fraction after Mono Q and Superose 6

Ub-lysozyme conjugates = assay: Degradation of Ub-lysozyme conjugates in 1st and 2nd hour with additions at 60 min; format: biochemical, rabbit; conditions: substance added at 60 min, cystatin 4 μM

Molecule: Nc1ncnc2c1ncn2[C@@H]1O[C@H](COP(=O)(O)CP(=O)(O)OP(=O)(O)O)[C@@H](O)[C@H]1O [AMP-CPP]
- effect on degradation of Ub-conjugated proteins by fraction II, in words [1]: did not stimulate the degradation of Ub-conjugated proteins

Molecule: Nc1ncnc2c1ncn2[C@@H]1O[C@H](COP(=O)(O)OP(=O)(O)NP(=O)(O)O)[C@@H](O)[C@H]1O [AMP-PNP, adenyl 5'-oyl-imidodiphosphate]
- effect on formation of the proteasome-multipain complex, in words [2]: completely prevented complex formation
- effect on degradation of Ub-conjugated proteins by fraction II, in words [1]: did not stimulate the degradation of Ub-conjugated proteins
- effect of nucleotides on Ub-125I-lysozyme hydrolysis by the purified enzyme, in words ([3]; Table III): No stimulation
- Relative activity (%), degradation of Ub-125I-lysozyme by the new activity ([3]; Table III, None = 100, 2 mM of the nucleotides or 10 mM PPi, 37° C. 1 hour): 90%
- effect of nucleotides on Ub-125I-lysozyme hydrolysis by the complex, in words ([4]; Table VIII): No stimulation
- Realtive Activity (%) Complex, Ub-lysozyme degradation ([4]; Table VIII, None = 100, 2 mM of the nucleotide or 10 mM PPi): 109%

Molecule: CN [Methylamine]
- Myofibrillar Proteins 3-Methylhistidine Release (denervated soleus; None = 5.11 ± 0.21, as E65): 5.05 ± 0.19 pmol/mg/2h
- Total Proteins Tyrosine Release (denervated soleus; soleus three days after section of the sciatic nerve, None = 328 ± 10, methylamine 10 μM, E64c 50 μM, dinitrophenol 0.1 mM, 2-deoxyglucose 5 mM): 330 ± 11 pmol/mg/2h

B1: Cystatin A: egg-white cystatin, a potent inhibitor of many papain-like thiol proteinases (protein, UniProt P01040 1-98, looked up)
Cystatin-A: MIPGGLSEAKPATPEIQEIVDKVKPQLEEKTNETYGKLEAVQYKTQVVAGTNYYIKVRAGDNKYMHLKVFKSLPGQNEDLVLTGYQVDKNKDDELTGF
- Realtive Activity (%) Proteasome (sLLVT-MCA) [5]: 93%
- Relative activity (%) […]-MCA [5]: 93%
- Degradation in 2nd hour (Ub-lysozyme conjugates; Complex added initially, None = 65): 18 ng
- Degradation in 2nd hour (Ub-lysozyme conjugates; Multipain added initially, None = 74): 4 ng
- effect on formation of the proteasome-multipain complex, in words [2]: did not occur; also recorded: blocked
- Realtive Activity (%) Multipain [3]: 30%
- Relative activity (%) NEW PROTEASE OH/O2 - treated hemoglobin [3]: 27%
- Relative activity (%) NEW PROTEASE Ub-lysozyme [3]: 30%
- Relative activity (%) NEW PROTEASE lysozyme [3]: 24%
- Ki ([3]; read-out: Ki, inhibition of proteolysis by multipain): < 1 µM
- Realtive Activity (%) Complex (Ub-125I-Lysozyme) [4]: 35%
- inhibition of conjugate breakdown by the complex [4]: 65%
